The numbers were not newly measured in PMC9213791, which cites them from elsewhere.

In this series the target is cardiac troponin C N-terminal domain (cNTnC) N-terminal domain (Homo sapiens) (UniProt P63316).
cardiac troponin C N-terminal domain (cNTnC) N-terminal domain (Homo sapiens), sequence (P63316 1-89): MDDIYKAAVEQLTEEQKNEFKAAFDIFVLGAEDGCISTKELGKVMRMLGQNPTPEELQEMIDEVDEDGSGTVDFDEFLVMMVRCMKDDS

By Kd is commonly meant the free concentration of one partner at which half of the binding sites on the other are occupied at equilibrium, for simple one-to-one binding. Turning to “cardiac troponin I switch peptide switch peptide (from UniProt P19429)”, the Kd was 154 µM.
